These are literature values, as cited in article PMC12694644.

For orientation: Kd means the concentration at which binding is half-saturated.

The target of the data set is IL-23 p19 (Homo sapiens) (UniProt Q9NPF7).
Sequence of IL-23 p19 (Homo sapiens) (Q9NPF7 20-189): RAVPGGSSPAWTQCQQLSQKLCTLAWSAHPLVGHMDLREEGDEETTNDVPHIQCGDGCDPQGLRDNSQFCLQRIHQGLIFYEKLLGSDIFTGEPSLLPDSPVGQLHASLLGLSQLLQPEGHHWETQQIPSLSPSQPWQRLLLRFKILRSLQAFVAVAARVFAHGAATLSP

With Guselkumab, the Kd is 3.3 pM.
